Measured values published in the DeepSol protein solubility set.

Experiment: soluble on expression in E. coli; label from the status in PepcDB or PDB records

| Sequence | soluble on expression in E. coli |
| --- | --- |
| MKAKTDFFHMKQAGEPIVMVTAYDFPSAKLAEQAGVDMILVGDSLGMVVLGYDSTIPVTVDDMIHHTKAVRRGAPNTFIVTDMPFMSYHASKEEALQNARRIMQESGANAVKVEGADEVVDMIAALTKAGVPVVAHLGLTPQSVGVLGGYKVQGKDAESAKKLLDDAKQCEQAGAIALVLECVPKQLGAAMARELTIPVIGIGAGAEVDGQVLVYHDLLGYGVTRVPKFVKQYASIQETIVEALANYVADVKLRQFPEPAHTFTMKEEEWVALYGGKQG | not soluble |
| MKALRSSSRLSRWREWAAPLWVGCNFSAWMRLLIRNRFAVHHSRWHFAVLYTFLSMVNSCLGLWQKIVFGRRVAETVIADPPIFIVGHWRTGTTLLHELLVVDDRHTGPTGYECLAPHHFLLTEWFAPYVEFLVSKHRAMDNMDLSLHHPQEDEFVWCMQGLPSPYLTIAFPNRPPQYEEYLDLEQVAPRELEIWKRTLFRFVQQVYFRRRKTVILKNPTHSFRIKVLLEVFPQAKFIHIVRDPYVVYPSTIHLHKALYRIHGLQQPTFDGLDDKVVSTYVDLYRKLDEGRELVDPTRFYELRYEDLIGDPEGQLRRLYQHLGLGDFECYLPRLRQYLADHADYKTNSYQLTVEQRAIVDEHWGEIIDRYGYDRHTPEPARLRPAVGG | not soluble |
| MKALTTRQQEVYDLVRDHLAQTGMPPTRAEIAQRLGFRSPNAAEEHLKALARKGVIEIVSGASRGIRLLMEEEEGLPLIGRVAAGEPLLAQQHIEGHYKVDPSLFKPGADFLLRVNGMSMRDIGILDGDLLAVHKTQDVRNGQVVVARIDDEVTVKRLKKQGNIVHLLPENSEFQPIVVDLREQSFTIEGLAVGVIRNGDWI | not soluble |
| MKARIMYEAYFNLTTKPFELLPNPDFIFPSKSHKRALMYLDYGISERAGFILLTGDIGTGKTTLIRNMIQLKDERTIISRIFNTRVEPEQLLAMICHDFGIPAEGRGKVALLNELNDYLIEQFALGNRPVLIIDEAQNLSADLLEDIRLLSNLETSDTKLLQIVLVGQPELREVLALPQLLQLRQRISINCHISPLSREETEGYIFHRLDRAGNRNAVAFSSDALDIVYRYSRGIPRLVNIICDFILLSAFAEQTTEIPGEMVRDIIGDLDFENHYWGGAEVAASERAPEAARLAPGRSDEATELVATLRAVIDRLESLEGDFARMSRGVLDEMSEKVASLENAFRFHVDETDSHISEIRRRIEKVQNLEVGTTGECQPQDSPKGLLKRMFGALEHHHHHH | not soluble |
| MKAYLGLYTARLETPARSLKEKRALIKPALERLKARFPVSAARLYGLDAWGYEVVGFTLLGNDPAWVEETMRAAARFLAEAGGFQVALEEFRLEAFELDGLL | soluble |
| MKCPFCAHPDTRVADSRLMEERNAVRRRRHCPNCGKRFGTLETAELKMPAVIGPDKKRSPFNAQRLRNDLTAAARKSALTPEQIDETVRLTEHRLYTSGQRDIPSAALADMVLKELLRQDTEAAVRFAALHKRFDNPADFASWLAQAVKTGGKA | not soluble |
| MKCVEVHVIDSSAIFQRKAVYRNMVTVPEVVAEILDEASALYFSVKNFRVEEASPESVEEVKEAARKTGDIHKLSDTDIKVLAKALDEIKKGNEVVLVTDDYAIQNVAMSLGIRFDGILHRQISKEFKWVKVCRGCGRRIESEICPVCGSEAIIRRVKNDKNRNSG | not soluble |
| MKDVVDKCSTKGCAIDIGTVIDNDNCTSKFSRFFATREEAESFMTKLKELAAAASSADEGASVAYKIKDLEGQVELDAAFTFSCQAEMIIFELSLRSLALEHHHHHH | not soluble |
| MKDWFMNLLYYLKRPFIRLSRFRYRCGYGVHSPFAFSLITDVIYEKMPYYAYDLLKVEQKKRITTQRWEKGIPRINRLLFRLVNKVQPATIIEVGQPSAASLYLQSAKPSAGYLFASDLSELFLDADTPVDFLYLNDYRNPALLEEVFNICSRRTTPNSLFVVHGICYSKAMKNLWKQLQNDERVGITFDLYDAGLLFFDTTKIKQHYIVNF | not soluble |
| MKEDWYRKMYGPSASKTYETSLFNLITSEFGYIGGPDVVKLFTKKIVELNNQYYLREEFVRPGQMRWLVLKAGQKYSKSKKLSEMQLIPVTLTLINPEDIEDRITKVKKNELIEKLIVRLCNETKEQGGVLTETDIAILFRLSCTMISNHVTSYEKRTKKVIPRAGTEMDMGKSLTHKRLAFHNYKKKIPTSENARLIDHTPESVDRYIKDGTRIEKLYAAGYDEWNMAFFTGLPIYVVQEYVEIIKSYEKEKNDKKDIENQ | not soluble |
| MKEEIIIAGFGGQGVLSMGKILAYSGLMEGKEVTWMPAYGPEQRGGTANVTVIVSDDKISSPILSKYDTAIILNQPSLEKFESRVKPGGILIYDGYGIINPPTRKDIKVYRIDAMDAANEMNNAKAFNMIVLGGLLKLRPIVTLENVVKGLKKTLPERHHHLIPMNEEAIKKGMELIRE | not soluble |
| MKEKILLGGYTKRVSKGVYSVLLDTKAAELSSLNEVAAVQNPTYITLDEKGHLYTCAADSNGGGIAAFDFDGETATHLGNVTTTGAPLCYVAVDEARQLVYGANYHLGEVRVYKIQANGSLRLTDTVKHTGSGPRPEQASSHVHYSDLTPDGRLVTCDLGTDEVTVYDVIGEGKLNIATIYRAEKGMGARHITFHPNGKIAYLVGELNSTIEVLSYNEEKGRFARLQTISTLPEDYHGANGVAAIRISSDGKFLYTSNRGHDSLTTYKVSPLGTKLETIGWTNTEGHIPRDFNFNKTEDYIIVAHQESDNLSLFLRDKKTGTLTLEQKDFYAPEITCVLPLLEHHHHHH | not soluble |
| MKELIRKLTEAFGPSGREEEVRSIILEELEGHIDGHRIDGLGNLIVWKGSGEKKVILDAHIDEIGVVVTNVDDKGFLTIEPVGGVSPYMLLGKRIRFENGTIGVVGMEGETTEERQENVRKLSFDKLFIDIGANSREEAQKMCPIGSFGVYDSGFVEVSGKYVSKAMDDRIGCAVIVEVFKRIKPAVTLYGVFSVQEEVGLVGASVAGYGVPADEAIAIDVTDSADTPKAIKRHAMRLSGGPALKVKDRASISSKRILENLIEIAEKFDIKYQMEVLTFGGTNAMGYQRTREGIPSATVSIPTRYVHSPSEMIAPDDVEATVDLLIRYLGA | not soluble |
| MKELTNEELRGIQLEQLKYIDRICRENGIEYTLAGGSLIGAIRHGGYIPWDDDIDIELTRPHYDHLISVLMDQLPNEKYALLHYKVRETYLPFAKLYDTRTSFTSKIDNLNRGTGVFLDIFPMDILPDNEEERQVFKKEFLKKAIQLTASNPHGLDFASSSKKIYFWGKLVLWMPQHIRFYGKYRILAEKLDEFMQKYRNSDNQLISYLYTGYKKAIFPKEIWEEYEDVKFEGLTARKLKNHEEYLTRQYGDYMKLPPENERVNHDYYKWYWKEKNEILEHHHHHH | soluble |
| MKERKFINEAVKRLLVCEYVVKETENAGFGNMVMKRTPFGTNITLYVNRPGLVIGRRGSKVQQMTDTLEKKYGIETPQIEVKDVKDPDLNPSVIAKKIALSLEKGWSYRKAGNTSLNRTIQAGAKGVLIKISGKISGERARYQKFIYGNVKYSGEPGSKGMITGFSTAKLKVGILGVTVKILNPEYKLPDVFSIENITGGEEVGTESKADQTDVEGRETGNAEES | not soluble |
| MKESLLTLTEKIMFTTTVLKPTITTPITMLITTMRTLVAMKIRHYWKMMAIKDRKIQIPPVKYQMELSIRTLEINLLKNVKETEANLLKRRTDRENKRHYEFGFFYNLRIHNIYIPTSFFFFNSIV | soluble |
| MKESYYSIGEVSKLANVSIKALRYYDKIDLFKPAYVDPDTSYRYYTDSQLIHLDLIKSLKYIGTPLEEMKKAQDLEMEELFAFYTEQERQIREKLDFLSALEQTISLVKKRMKRQMEYPALGEVFVLDEEEIRIIQTEAEGIGPENVLNASYSKLKKFIESADGFTNNSYGATFSFQPYTSIDEMTYRHIFTPVLTNKQISSITPDMEITTIPKGRYACIAYNFSPEHYFLNLQKLIKYIADRQLTVVSDVYALIIPIHYSPKKQEEYRVEMKIRILDHHHHHH | soluble |
| MKFCSLCGATVVQRIPDGDNRLRYVCDACHTVHYQNPRIVAGSLPVWDGQVLLCRRAIAPRLGYWTLPAGFMENGETLAQAAARETEEEANARIGDLQLYTLFDLPHISQVYLFFRAELLDLDFSAGDESLEVRLFDEAEIPWSELAFPTIGRTLECYFSDRREGCFPVRNEAIAPMLASYKKD | not soluble |
| MKFGTVWKYYFTESLLKATIRTPSQLNLAPNALRPVLDQLCRLFPQNPTVQIRPIRLAGVRGEEIKAQASATQLIFHIHGGAFFLGSLNTHRALMTDLAARTQMQVIHVDYPLAPEHPYPEAIDAIFDVYQALLVQGIKPKDIIISGDSCGANLALALCLRLKQQPELMPSGLILMSPYLDLTLTSESLRFNQKHDALLSIEALQAGIKHYLTDDIQPGDPRVSPLFDDLDGLPPTLVQVGSKEILLDDSKRFREKAEQADVKVHFKLYTGMWHNFQMFNAWFPEAKQALADIAEFAHSLDLD | soluble |
| MKFIVKPHPEIFVKSESVRKRFTKILECNIRNIVKSRTESVAVFNRRDHIEVTSESNEYHAEVLEILTHTPGIHHVLEVKQSEFKDLHDIYEQVLELSRPLIENKTFVVRAKRRGKHDFTSIELERYVGGGLNQAVESARVKLHNPDVTVKVEVSGDKLNQVLARHKGLGGFPLGTQEDVLSLISGGFDSGVSSYLHIKRGSKVHYCFFNLGGPAHEIGVKQVSHYLWNKYGSSAKVRFISVDFEPVVAEILEKVDDGQMGVILKRMFMRAAGMIAEKFKIEALVTGEALGQVSSQTLTNLRHIDNVTDTLILRPLINWDKEDIINLAREIGTEDFAKTMPEYCGVISKKPTVKAVKEKLEAEEAKFDFSILEKVVYEARQMDIRDIAKESEQAAPEVEQVQAVEEHAVVLDIRSPDEEDDNPLEIAGVDVKHIPFYKLGTQFGDLDQSKTYLLYCDRGVMSRLQALYLQEQGFNNVKVYRP | not soluble |
| MKGIEVENLKFSHNGREILHDINFEIDKGSFLIILGPNGAGKTTLLRCIAGILKYKGSIKVLGNDIKELSRIELAKLLAYVPQRIEPGFLRVFDFVLLGRKPYMGLNPGRKDLKAVEDALRLLGIQRLEDRIMKTLSGGELQKVAIARAIAQETPVILLDEPTNNLDPKSQIEVMEIIKDLVKRGKTVVTVMHDLTLALRFGEEFLFLKDGRSTGLLTREELEEKILSETYGVKIRVARVEGEVIPLVGL | soluble |
| MKGIMVQGTASDVGKSLICTALCRIFARRGYKVTPFKSQNMSNNSYITVEGLEIGRAQGIQAEAAMEEASVYMNPILLKPRNDREAEIVCFGQAVDTVSGVKYRDGFYKRGLEAIKQALATLSQSFDMVVIEGAGSPVEVNLNDRELVNMKVAELADVPVILVADIERGGVFASLYGTLELLQPNERKRVVGIIVNKFRGDPELFSSGVQWIEQHLGVPVLGVLPHLPGVRIEGEDSLSKGQVTSVLPRDQSIDIAVLDLPYLSNYTDLEPFRYEEDVAIRFVSSVDALGRPDAIILPGTKSTFHDLQILKEKGFKERLHEYVTTDGTVVAICGGFQMLGHRLIDVAGSDTGIKGATIDGLDLAPVETRFAEKKKTVRSLGQLLHPFGTAKDIYGFEIHLGETDIVDPSIPAFLRVGNHTDGVYLHEGRLIGTYFHHLFFNDDFRSGWLNTLRRKKGLRERPTVELEKCRRASYDQLADEVERVLHVDSLLEKMERWGETS | soluble |
| MKGLFVTIEGPEGSGKTTLIQSLLPYFEQKEQKVMATREPGGIAISEDIRTILHKQEYTMMEARTEALLYAAARRQHLVEKVMPALNEDYLVLCDRFIDSSLAYQGYARGLGMDKVFEINRFATEDCMPSLTIYLDIEPEVGLARIAKDAGREVNRLDMEDISFHKRVREGYLQVVERFSDRIVLVNADQPMEKLIEEVIQVIEDKLL | soluble |
